System: LexA (Escherichia coli)
Experiment: EMSA

## YNN1-LexO naked DNA
  Kd: < 5 nM
